By Kd is commonly meant the equilibrium constant for the complex coming apart. A high value points to a looser complex.

The assay concerns the target human CD36 ectodomain (residues 35-439), C-terminal 8xHis and biotinylated BAP tag (human) (UniProt P16671). Put plainly: SPR; biotinylated CD36 (wild type or F153A) immobilised on a CAPture chip to ~700 RU; CIDRα domains as analytes, two-fold dilutions from 400 nM (Supplementary Figure 10: 400 nM only), 240 s injection, 300 s dissociation; 25 °C, 20 mM HEPES pH 7.5, 0.15 M NaCl, 0.005% Tween20; affinities from equilibrium binding, one site-binding model. (SPR reads the build-up and loss of mass on a sensor chip optically.)

Sequence of human CD36 ectodomain (residues 35-439), C-terminal 8xHis and biotinylated BAP tag (human) (P16671 35-439): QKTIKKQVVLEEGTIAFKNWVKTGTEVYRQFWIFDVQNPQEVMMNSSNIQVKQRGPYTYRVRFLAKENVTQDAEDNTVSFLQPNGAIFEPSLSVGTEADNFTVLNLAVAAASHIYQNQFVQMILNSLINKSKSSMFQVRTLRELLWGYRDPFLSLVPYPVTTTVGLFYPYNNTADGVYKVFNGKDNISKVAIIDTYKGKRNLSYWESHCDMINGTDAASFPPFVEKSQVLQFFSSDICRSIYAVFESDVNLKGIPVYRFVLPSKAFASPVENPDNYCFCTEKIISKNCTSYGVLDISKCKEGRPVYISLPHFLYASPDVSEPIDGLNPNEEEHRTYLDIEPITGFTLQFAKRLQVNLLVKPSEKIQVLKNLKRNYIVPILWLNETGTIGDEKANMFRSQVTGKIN

In turn, “IT4var26 CIDRα3.3 domain (domain or fragment)” gave a Kd of 9.6 nM.

Values taken from paper PMC5052687.
